± gives the half width of the 95% confidence interval.
Legend:
[1] = folding stability dG unfold from chymotrypsin proteolysis; higher = more stable
How it was run: (§1)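 Unfolding free energy was derived, per protease or combined, against a sequence-predicted unfolded-state K50 and a shared folded-state K50, starting from K50 inferred by Bayesian fitting of sequencing counts. Digestion with trypsin and chymotrypsin was carried out on designed mini-proteins under 80 residues without cysteine in a PA-tagged cDNA display construct. Only designs with AlphaFold2 dimer inter-PAE above 15 were kept.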

[2] = folding stability dG unfold (combined trypsin and chymotrypsin); higher = more stable
How it was run: as §1

[3] = folding stability dG unfold from trypsin proteolysis; higher = more stable
How it was run: as §1

Row | Sequence | folding stability dG unfold [1] [kcal/mol] | folding stability dG unfold [2] [kcal/mol] | folding stability dG unfold [3] [kcal/mol]
1 | SAGDDWIPIEEIARRIARKHGYPVKSVEVPIYKTPDYYYVTVHIKYENPDDGKKQEFEDQFWIPKDEIKSAG [r5_421_TrROS] | 0.97 ± 0.054 | 0.886 ± 0.17 | 0.968 ± 0.065
2 | SAGGSAAGYAVLVRVEEVRLTSFRRRADGSLLEVDPDVELKLEVLAVFRIYPSPGDGWVVDPSDPASAGGSA [r15_162_TrMRF] | 3.827 ± 0.025 | 3.53 ± 0.062 | 2.73 ± 0.057
3 | SAGGSAGGSELNIEKIVVLDYDPETGLAYVKIFYGDGEVKEFKVKSLEELKEKFPDVEILEKGSAGGSAGGS [r12_403_TrMRF] | 4.57 ± 0.084 | 4.43 ± 0.065 | 3.64 ± 0.12
4 | SAGGEKLETFPFKGDDDREVTLVRFEGEDRILLLVYDPDTDKVLLIAPDAIAEIDLKTGEAKVILKKSSAGG [r13_416_TrMRF] | 2.111 ± 0.016 | 1.98 ± 0.049 | 1.66 ± 0.046
5 | SWLKLPPGQKVITFQFQYPLPPGQSADDLVDNMEKELREFFGPGVKIEVNVQWDPNNGYFRVSVTIVIPKSA [r9_657_TrROS] | 1.21 ± 0.17 | 1.63 ± 0.2 | 1.86 ± 0.057
6 | SAGGSAKKPKIKIKIKITNENGEKIEIEIEAETEEEALEAAKKLAEELAKKPNIKEVKIEITEIEPSAGGSA [r15_698_TrROS_Hall] | 2.19 ± 0.1 | 2.07 ± 0.096 | 1.74 ± 0.067
7 | SAGGSMLSTEPKETDDEIKVTKIYYPEEPIEVTLTTDPDTDLVTATSPSSTATIDAKTGKTTTTPSSSSAGG [r13_416_JUSTAS] | 0.876 ± 0.039 | 0.545 ± 0.14 | -0.285 ± 0.1
8 | SKKYKIKKVTIFVYKNGKVEEKEVDLTVDELKALEDAGFEVVKVEEKDGYITVVIKKDGYLVIIKIEIEPSA [r9_5_TrROS_Hall] | 3.9 ± 0.2 | 3.52 ± 0.37 | 2.73 ± 0.18
9 | SAGGSFKIHWFDDPEAAEEAAKDMDPGKIIILPDPKNPKYYIVIVVKDKIFRYEIDNGNIKIEPIPSAGGSA [r2_280_TrROS] | 2.3 ± 0.029 | 2.11 ± 0.08 | 1.86 ± 0.072
10 | SAGGSAGGSAGGDNWKIGIDIIPIRFTFEMTMKDGGKPRPMRMEFEVTIIVIKITPPGDSAGGSAGGSAGGS [r10_118_TrROS] | 5.1 ± 0.079 | 4.89 ± 0.11 | 3.5 ± 0.1
11 | SAGGSAGGSAGGDPNWVTVTIMIKVPPGDKPIEIEIPNGIKVEYYPFPDDGYLIFKITVRSAGGSAGGSAGG [r7_796_TrROS] | 3.11 ± 0.16 | 3.02 ± 0.23 | 2.78 ± 0.16
12 | SAMSAEELAERLRERLKKLAEEEGLEVEITVTVEENEDGSLTVTITVKSEEEAERIKEKLPEGVKVEKKSAG [r14_491_TrROS_Hall] | 2.37 ± 0.1 | 2.14 ± 0.21 | 1.43 ± 0.054
13 | SAGGKTVTIKVTRPDGKELTIEFEEKDGKVTVRVFDKDGKLVKEIEVDSLEEALKALEEAGYEVEVVPSAGG [r13_315_TrROS_Hall] | 3.36 ± 0.15 | 3.42 ± 0.2 | 3.49 ± 0.22
14 | SAGGSGPDVPLEEIARRIAEELGVPILSVDFERDPEAPVVTIRVTFRSPAPGRLEERTVVLPRELLSAGGSA [r2_156_JUSTAS] | 0.759 ± 0.083 | 0.883 ± 0.068 | 0.942 ± 0.035
15 | SAGGSIEEILKAIPDAEKYEIDREKGIAYVTKKNTLYIVTVPRTSLPSPNGVLEPVSPISIKELPLESAGGS [r16_65_JUSTAS] | 0.538 ± 0.1 | 0.447 ± 0.089 | 0.128 ± 0.047
16 | SMPKTIELEIDEDLPEEEVRARLLAQGFEEIEFHELEDPEVRRVTATRPEDDETVVVTVRPPPVPPDAPGSA [r9_1090_JUSTAS] | 2.29 ± 0.079 | 2.28 ± 0.18 | 2.38 ± 0.096
17 | SAGGMTLEFELEAEPLEEVEKRVRELLRELGFPESVEITIEPKKPDDGSVIYPVKVTLNDPALEARLSAGGS [r8_85_JUSTAS] | 1.22 ± 0.036 | 1.11 ± 0.097 | 1.04 ± 0.038
